Laboratory results as given in paper PMC1277818, “Substrate specificity analysis of protein kinase complex Dbf2-Mob1 by peptide library and proteome array screening” (BMC Biochemistry, 2005).

T1: FHHDbf2-H6Mob1TM9 (Saccharomyces cerevisiae, UniProt P22204+P40484)
T1 construct: made in house; host or cells: Hi5 insect cells (baculovirus)
T1 sequence (P22204 1-572): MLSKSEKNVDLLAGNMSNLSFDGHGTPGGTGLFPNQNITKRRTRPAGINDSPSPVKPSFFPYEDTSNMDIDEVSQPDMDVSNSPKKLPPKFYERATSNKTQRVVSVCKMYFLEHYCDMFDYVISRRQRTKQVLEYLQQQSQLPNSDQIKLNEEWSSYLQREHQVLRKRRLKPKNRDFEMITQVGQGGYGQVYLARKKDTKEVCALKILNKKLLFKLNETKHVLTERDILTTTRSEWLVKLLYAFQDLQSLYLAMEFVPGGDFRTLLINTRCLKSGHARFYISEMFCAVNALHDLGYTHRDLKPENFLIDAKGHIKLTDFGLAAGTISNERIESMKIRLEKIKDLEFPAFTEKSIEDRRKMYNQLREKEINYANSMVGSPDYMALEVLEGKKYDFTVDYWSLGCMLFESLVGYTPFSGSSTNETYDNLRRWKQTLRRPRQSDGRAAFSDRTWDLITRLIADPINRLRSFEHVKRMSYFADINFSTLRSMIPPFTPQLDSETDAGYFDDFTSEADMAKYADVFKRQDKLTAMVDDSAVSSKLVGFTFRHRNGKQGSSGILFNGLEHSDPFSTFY
T1 sequence (P40484 1-314 partner): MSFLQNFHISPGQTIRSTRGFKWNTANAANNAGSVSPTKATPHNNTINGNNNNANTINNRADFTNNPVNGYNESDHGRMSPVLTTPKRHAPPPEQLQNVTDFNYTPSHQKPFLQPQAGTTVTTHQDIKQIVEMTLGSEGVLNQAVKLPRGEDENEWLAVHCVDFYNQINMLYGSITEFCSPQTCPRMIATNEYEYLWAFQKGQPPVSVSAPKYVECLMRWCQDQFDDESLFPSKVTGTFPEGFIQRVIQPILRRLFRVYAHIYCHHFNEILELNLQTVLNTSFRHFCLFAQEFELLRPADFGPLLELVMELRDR

B1: YGR264C: GST fusion yeast protein on proteome chip (protein, UniProt P00958 2-751, looked up)
Methionine--tRNA ligase, …: SFLISFDKSKKHPAHLQLANNLKIALALEYASKNLKPEVDNDNAAMELRNTKEPFLLFDANAILRYVMDDFEGQTSDKYQFALASLQNLLYHKELPQQHVEVLTNKAIENYLVELKEPLTTTDLILFANVYALNSSLVHSKFPELPSKVHNAVALAKKHVPRDSSSFKNIGAVKIQADLTVKPKDSEILPKPNERNILITSALPYVNNVPHLGNIIGSVLSADIFARYCKGRNYNALFICGTDEYGTATETKALEEGVTPRQLCDKYHKIHSDVYKWFQIGFDYFGRTTTDKQTEIAQHIFTKLNSNGYLEEQSMKQLYCPVHNSYLADRYVEGECPKCHYDDARGDQCDKCGALLDPFELINPRCKLDDASPEPKYSDHIFLSLDKLESQISEWVEKASEEGNWSKNSKTITQSWLKDGLKPRCITRDLVWGTPVPLEKYKDKVLYVWFDATIGYVSITSNYTKEWKQWWNNPEHVSLYQFMGKDNVPFHTVVFPGSQLGTEENWTMLHHLNTTEYLQYENGKFSKSRGVGVFGNNAQDSGISPSVWRYYLASVRPESSDSHFSWDDFVARNNSELLANLGNFVNRLIKFVNAKYNGVVPKFDPKKVSNYDGLVKDINEILSNYVKEMELGHERRGLEIAMSLSARGNQFLQENKLDNTLFSQSPEKSDAVVAVGLNIIYAVSSIITPYMPEIGEKINKMLNAPALKIDDRFHLAILEGHNINKAEYLFQRIDEKKIDEWRAKYGGQQV
modifications: GST tag
notes: GST fusion yeast protein on proteome chip
B2: YBL024W: GST fusion yeast protein on proteome chip (protein, UniProt P38205 1-684, looked up)
Multisite-specific …: MARRKNFKKGNKKTFGARDDSRAQKNWSELVKENEKWEKYYKTLALFPEDQWEEFKKTCQAPLPLTFRITGSRKHAGEVLNLFKERHLPNLTNVEFEGEKIKAPVELPWYPDHLAWQLDVPKTVIRKNEQFAKTQRFLVVENAVGNISRQEAVSMIPPIVLEVKPHHTVLDMCAAPGSKTAQLIEALHKDTDEPSGFVVANDADARRSHMLVHQLKRLNSANLMVVNHDAQFFPRIRLHGNSNNKNDVLKFDRILCDVPCSGDGTMRKNVNVWKDWNTQAGLGLHAVQLNILNRGLHLLKNNGRLVYSTCSLNPIENEAVVAEALRKWGDKIRLVNCDDKLPGLIRSKGVSKWPVYDRNLTEKTKGDEGTLDSFFSPSEEEASKFNLQNCMRVYPHQQNTGGFFITVFEKVEDSTEAATEKLSSETPALESEGPQTKKIKVEEVQKKERLPRDANEEPFVFVDPQHEALKVCWDFYGIDNIFDRNTCLVRNATGEPTRVVYTVCPALKDVIQANDDRLKIIYSGVKLFVSQRSDIECSWRIQSESLPIMKHHMKSNRIVEANLEMLKHLLIESFPNFDDIRSKNIDNDFVEKMTKLSSGCAFIDVSRNDPAKENLFLPVWKGNKCINLMVCKEDTHELLYRIFGIDANAKATPSAEEKEKEKETTESPAETTTGTSTEAPSAAN
modifications: GST tag
notes: as for B1
B3: YLR007W: GST fusion yeast protein on proteome chip (protein, UniProt Q07913 1-336, looked up)
Non-structural maintenance of …: MEVHEEQVSAPVTGDATAKYLLQYILSARGICHENALILALMRLETDASTLNTEWSIQQWVDKLNDYINAINVKLNLLGYKIIRINHGIGRNAVTLKAKQNFESFEDNTAIRAHNNDYAVLQSIVLPESNRFFVYVNLASTEETKLATRFNQNEIEFMKWAIEQFMISGETIVEGPALETSIIVKEVNRILVAATGDSNLAKWRKFSTFTVGSTNLFQFQELTATDIEDLLLRLCELKWFYRTQEGKFGIDLRCIAELEEYLTSMYNLNTCQNCHKLAIQGVRCGNESCREENEETGENSLSQIWHVDCFKHYITHVSKNCDRCGSSLITEGVYVI
modifications: GST tag
notes: as for B1
B4: YLR303W: GST fusion yeast protein on proteome chip (protein, UniProt P06106 2-444, looked up)
Homocysteine/cysteine synthase: PSHFDTVQLHAGQENPGDNAHRSRAVPIYATTSYVFENSKHGSQLFGLEVPGYVYSRFQNPTSNVLEERIAALEGGAAALAVSSGQAAQTLAIQGLAHTGDNIVSTSYLYGGTYNQFKISFKRFGIEARFVEGDNPEEFEKVFDERTKAVYLETIGNPKYNVPDFEKIVAIAHKHGIPVVVDNTFGAGGYFCQPIKYGADIVTHSATKWIGGHGTTIGGIIVDSGKFPWKDYPEKFPQFSQPAEGYHGTIYNEAYGNLAYIVHVRTELLRDLGPLMNPFASFLLLQGVETLSLRAERHGENALKLAKWLEQSPYVSWVSYPGLASHSHHENAKKYLSNGFGGVLSFGVKDLPNADKETDPFKLSGAQVVDNLKLASNLANVGDAKTLVIAPYFTTHKQLNDKEKLASGVTKDLIRVSVGIEFIDDIIADFQQSFETVFAGQKP
modifications: GST tag
notes: as for B1
B5: YLL008W: GST fusion yeast protein on proteome chip (protein, UniProt P32892 1-752, looked up)
ATP-dependent RNA helicase …: MVVGTKKYSNLDFVPTISDSEDDVPILDSSDDEKVEAKKTTKKRKGKNNKKKVSEGDNLDEDVHEDLDAGFKFDLDADDTTSNFQGWNFLAEGESNKDDAEAFVKKDVDLDKIIRRKGGLVKMAHIDSKQEEETEKEKVEKENDSDDEELAMDGFGMGAPMNNGDENQSEEEEEEEEKEEEEEEEEEQEEMTLEKGGKDDEIDEEDDSEEAKADFYAPETEGDEAKKQMYENFNSLSLSRPVLKGLASLGYVKPSPIQSATIPIALLGKDIIAGAVTGSGKTAAFMIPIIERLLYKPAKIASTRVIVLLPTRELAIQVADVGKQIARFVSGITFGLAVGGLNLRQQEQMLKSRPDIVIATPGRFIDHIRNSASFNVDSVEILVMDEADRMLEEGFQDELNEIMGLLPSNRQNLLFSATMNSKIKSLVSLSLKKPVRIMIDPPKKAATKLTQEFVRIRKRDHLKPALLFNLIRKLDPTGQKRIVVFVARKETAHRLRIIMGLLGMSVGELHGSLTQEQRLDSVNKFKNLEVPVLICTDLASRGLDIPKIEVVINYDMPKSYEIYLHRVGRTARAGREGRSVTFVGESSQDRSIVRAAIKSVEENKSLTQGKALGRNVDWVQIEETNKLVESMNDTIEDILVEEKEEKEILRAEMQLRKGENMLKHKKEIQARPRRTWFQSESDKKNSKVLGALSRNKKVTNSKKRKREEAKADGNGARSYRKTKTDRIADQERTFKKQKSTNSNKKKGFKSRR
modifications: GST tag
notes: as for B1
B6: YFR033C: GST fusion yeast protein on proteome chip (protein, UniProt P00127 1-147, looked up)
Cytochrome b-c1 complex …: MGMLELVGEYWEQLKITVVPVVAAAEDDDNEQHEEKAAEGEEKEEENGDEDEDEDEDEDDDDDDDEDEEEEEEVTDQLEDLREHFKNTEEGKALVHHYEECAERVKIQQQQPGYADLEHKEDCVEEFFHLQHYLDTATAPRLFDKLK
modifications: GST fusion
notes: as for B1
B7: YAL051W: GST fusion yeast protein on proteome chip (protein, UniProt P39720 1-1047, looked up)
Oleate-activated …: MVENSTQKAPHAGNDDNSSTKPYSEAFFLGFNNPTPGLEAEHSSTSPAPENSETHNRKRNRILFVCQACRKSKTKCDREKPECGRCVKHGLKCVYDVSKQPAPRIPSKDAIISRLEKDMFYWKDKAMKLLTEREVNESGKRSASPINTNNASGDSPDTKKQHKMEPIYEQSGNGDINNGTRNDIEINLYRSHPTMIMSKVMKREVKPLSENYIIIQDCFLKILVTSVFLDTSKNTMIPALTANANITRAQPSVANNLLKLKEMLIRQCQTEDEKNRVNEFTDRILQNTNSNRNLKIGMLLSMLYNSVGYQYLEDHCPQGGEYSDLLRNLINECEAILPSYEIIERYKNHFYEYVYPSLPFIELEIFEESLSQTIFPDPNNPSKVQIRMGSTHLRAKVENLSLLLVILKLSYMSIRFLDHSTADSSFYLSKEIIDKYPIPNDFILLSQRCLASENWCACANENIISCLLYIWSFFAFSPEEGDFFLEHPTDVISSLIMMLSTSIGLHRDPSDFPQLISPSTSDKRTLNHRRILWLSIVTVCSFEASLKGRHSVSPISLMALFLNIKDPDSLTVYMNRVRGDLSDINNHKLLRIHKFTFKRAQLALLLSDLDNLTMTYYGSFHLHSIEFIREKIEIFVEENFPIVPLKSVAQDKSDLDDMNVISEMNILSSENSSSFHNRIMNKLLMLRTSMAVFLHFETLITKDKSIFPFYKKYFMVSCMDALSLINYFNKFFNGEYRHAISSLTSFNVTKFIQLALSSTIFSLLGIILRIGLAIHMLSSEVQKLSGTTDPRIKELNTKVEKFSTLQRDLESALEGIYCSASEHLRFTYFPVFKMLALFDVIVQRMRKGELWHGIFTMIQMEQMHSRIIKTLSITLGVKLDKKDRLLEELMACNHVANFSVEDIDELNRNIKKEIQISSGLKPPVNTIDLTNGEPFGNAVPTFTKTWSSSLDNLEKLSSAAAVGQSLDYNSGLRQGPLAGGGSKEQTPIAGMNNLNNSINATPIVDNSSGSQLPNGFDRGQANNTPFPGYFGGLDLFDYDFLFGNDFA
modifications: GST tag
notes: as for B1

Target: T1, FHHDbf2-H6Mob1TM9
Assay: Yeast proteome chip assay
Type: biochemical
Conditions: [γ-33P]ATP, chips in duplicate
Method in brief: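 GST-tagged yeast proteins (~4,400 strains) spotted on proteome microarrays, probed in duplicate with FHHDbf2-H6Mob1TM9 in DKB plus [γ-33P]ATP; kinase-dead Dbf2(N305A) and kinase-free buffer served as controls. Positives: 3 of 4 spots ≥2 SD above background, fourth ≥1.5 SD.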

[1] = Table 3, GST fusion proteins on proteome chip, computer analysis

Molecule | Slide Signal (after normalization) [1] | Slide Signal (after normalization) (Table 4, the 25 proteins with highest signal relative to protein amount)
B1 | 0.1328 | –
B2 | 0.1294 | –
B3 | 0.0988 | –
B4 | 0.0985 | –
B5 | 0.0702 | –
B6 | 0.042 | –
B7 | – | 81.8589
